Data on four molecules can be found in PMC4071823, “Gamma-secretase subunits associate in intracellular membrane compartments in Arabidopsis thaliana” (Journal of Experimental Botany, 2014).

Common to all, as to assay: FRET or BRET; FLIM-FRET in living A. thaliana leaf mesophyll protoplasts that co-express the two fusions; eGFP donor, mRFP acceptor; E=1−τDA/τD×100%; FRET efficiency above the threshold of 5% (free eGFP with free mRFP) taken as putative positive interaction
What all share (settings): partners not purified
For orientation: Bioluminescence resonance energy transfer reports proximity on the nanometre scale.

One assay deals with T1, AtNCT–RFP (Arabidopsis thaliana, UniProt Q8GUM5 29-676).
T1 construct: Arabidopsis thaliana nicastrin (AtNCT, At3g52640); FLIM-FRET acceptor; also called nicastrin; source: A. thaliana leaf mesophyll protoplasts, transiently transfected (pSITE vector), in living cells; not shown: mRFP, C-terminal, kept
T1 sequence (looked up): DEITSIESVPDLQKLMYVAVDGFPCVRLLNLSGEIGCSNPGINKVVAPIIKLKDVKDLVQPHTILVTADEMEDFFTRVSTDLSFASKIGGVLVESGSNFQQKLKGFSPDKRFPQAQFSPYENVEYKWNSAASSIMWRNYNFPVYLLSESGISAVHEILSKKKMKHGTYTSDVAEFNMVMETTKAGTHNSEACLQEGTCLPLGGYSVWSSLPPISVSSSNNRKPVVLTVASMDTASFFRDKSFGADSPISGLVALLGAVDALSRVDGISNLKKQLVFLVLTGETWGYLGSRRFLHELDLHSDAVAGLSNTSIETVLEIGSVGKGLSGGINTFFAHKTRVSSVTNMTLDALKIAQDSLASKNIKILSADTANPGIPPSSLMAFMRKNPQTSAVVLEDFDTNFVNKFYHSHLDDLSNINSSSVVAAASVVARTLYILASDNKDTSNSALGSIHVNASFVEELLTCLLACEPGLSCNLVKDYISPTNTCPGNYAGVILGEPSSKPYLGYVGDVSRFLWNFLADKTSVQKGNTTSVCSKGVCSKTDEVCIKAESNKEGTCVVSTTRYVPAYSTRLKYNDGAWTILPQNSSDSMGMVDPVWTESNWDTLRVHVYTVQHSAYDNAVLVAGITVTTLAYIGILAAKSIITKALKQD

A further assay addresses T2, AtAPH-1–RFP (Arabidopsis thaliana, UniProt Q8L9G7 1-250).
T2 construct: Arabidopsis thaliana APH-1 (AtAPH-1, At2g31440); FLIM-FRET acceptor; also called anterior pharynx-defective 1; source: A. thaliana leaf mesophyll protoplasts, transiently transfected (pSITE vector), in living cells; not shown: mRFP, C-terminal, kept

In a further assay the target is T3, AtPEN-2–RFP (Arabidopsis thaliana, UniProt Q9FY84 1-146).
T3 construct: Arabidopsis thaliana PEN-2 (AtPEN-2, At5g09310); FLIM-FRET acceptor; also called presenilin enhancer 2; source: A. thaliana leaf mesophyll protoplasts, transiently transfected (pSITE vector), in living cells; not shown: mRFP, C-terminal, kept
T3 sequence (looked up): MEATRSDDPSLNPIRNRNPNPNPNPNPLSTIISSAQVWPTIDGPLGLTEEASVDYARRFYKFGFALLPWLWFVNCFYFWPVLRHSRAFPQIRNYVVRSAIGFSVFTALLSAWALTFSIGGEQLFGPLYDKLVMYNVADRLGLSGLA

T2 sequence (Q8L9G7 whole entry): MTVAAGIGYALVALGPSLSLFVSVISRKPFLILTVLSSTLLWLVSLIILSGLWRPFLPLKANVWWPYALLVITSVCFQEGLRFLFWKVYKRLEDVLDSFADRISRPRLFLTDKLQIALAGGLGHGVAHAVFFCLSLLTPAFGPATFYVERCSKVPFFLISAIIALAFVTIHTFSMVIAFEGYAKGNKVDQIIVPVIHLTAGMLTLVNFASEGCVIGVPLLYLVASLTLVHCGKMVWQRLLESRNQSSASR

B1: AtPEN-2–GFP (natural protein, Arabidopsis thaliana, UniProt Q9FY84 1-146, looked up)
chain: MEATRSDDPSLNPIRNRNPNPNPNPNPLSTIISSAQVWPTIDGPLGLTEEASVDYARRFYKFGFALLPWLWFVNCFYFWPVLRHSRAFPQIRNYVVRSAIGFSVFTALLSAWALTFSIGGEQLFGPLYDKLVMYNVADRLGLSGLA
notes: Arabidopsis thaliana PEN-2 (AtPEN-2, At5g09310); FLIM-FRET donor; also called presenilin enhancer 2; source: A. thaliana leaf mesophyll protoplasts, transiently transfected (pSITE vector), in living cells; not shown: eGFP, C-terminal, kept
Turning to B1, the “FRET efficiency, E_(FRET)” value in the assay with AtNCT–RFP stood at 11%.

B2: AtNCT–GFP (natural protein, Arabidopsis thaliana, UniProt Q8GUM5 29-676, looked up)
chain: DEITSIESVPDLQKLMYVAVDGFPCVRLLNLSGEIGCSNPGINKVVAPIIKLKDVKDLVQPHTILVTADEMEDFFTRVSTDLSFASKIGGVLVESGSNFQQKLKGFSPDKRFPQAQFSPYENVEYKWNSAASSIMWRNYNFPVYLLSESGISAVHEILSKKKMKHGTYTSDVAEFNMVMETTKAGTHNSEACLQEGTCLPLGGYSVWSSLPPISVSSSNNRKPVVLTVASMDTASFFRDKSFGADSPISGLVALLGAVDALSRVDGISNLKKQLVFLVLTGETWGYLGSRRFLHELDLHSDAVAGLSNTSIETVLEIGSVGKGLSGGINTFFAHKTRVSSVTNMTLDALKIAQDSLASKNIKILSADTANPGIPPSSLMAFMRKNPQTSAVVLEDFDTNFVNKFYHSHLDDLSNINSSSVVAAASVVARTLYILASDNKDTSNSALGSIHVNASFVEELLTCLLACEPGLSCNLVKDYISPTNTCPGNYAGVILGEPSSKPYLGYVGDVSRFLWNFLADKTSVQKGNTTSVCSKGVCSKTDEVCIKAESNKEGTCVVSTTRYVPAYSTRLKYNDGAWTILPQNSSDSMGMVDPVWTESNWDTLRVHVYTVQHSAYDNAVLVAGITVTTLAYIGILAAKSIITKALKQD
notes: Arabidopsis thaliana nicastrin (AtNCT, At3g52640); FLIM-FRET donor; also called nicastrin; source: A. thaliana leaf mesophyll protoplasts, transiently transfected (pSITE vector), in living cells; not shown: eGFP, C-terminal, kept
Consider B2, for which, in the assay with AtAPH-1–RFP, the “FRET efficiency, E_(FRET)” value stood at 14%.

B3: AtPS1–GFP (natural protein, Arabidopsis thaliana, UniProt O64668 1-453, looked up)
chain: MESSILDSLGVEIIGVMAPVSICMFLVVLLTYSLSVTSDPQIRSAANLIYIENPSDSTTVKLEGSLANAIVFVVLIAAVTFILVLLFYYNFTNFLKHYMRFSAFFVLGTMGGAIFLSIIQHFSIPVDSITCFILLFNFTILGTLSVFAGGIPIVLRQCYMVVMGIVVAAWFTKLPEWTTWFILVALALYDLVAVLAPGGPLKLLVELASSRDEELPAMVYEARPTVSSGNQRRNRGSSLRALVGGGGVSDSGSVELQAVRNHDVNQLGRENSHNMDYNAIAVRDIDNVDDGIGNGSRGGLERSPLVGSPSASEHSTSVGTRGNMEDRESVMDEEMSPLVELMGWGDNREEARGLEESDNVVDISNRGIKLGLGDFIFYSVLVGRAAMYDLMTVYACYLAIISGLGCTLILLSVYNRALPALPISIMLGVVFYFLTRLLMEPFVVGVTTNLMMF
notes: Arabidopsis thaliana presenilin 1 (AtPS1, At1g08700); FLIM-FRET donor; also called presenilin 1; source: A. thaliana leaf mesophyll protoplasts, transiently transfected (pSITE vector), in living cells; not shown: eGFP, C-terminal, kept
For the molecule B3, the “FRET efficiency, E_(FRET)” value with AtAPH-1–RFP turned out to be 19%; with AtPEN-2–RFP it was 24%; with AtNCT–RFP, 19%.

B4: AtPS2–GFP (natural protein, Arabidopsis thaliana, UniProt Q9SIK7 1-397, looked up)
chain: MDRNQRPRSILDSLGEELIAILTPVSICMFTVVLLVCILNSDPSSSSASFSSIATAAYSESDSDSSWDKFVGALLNSVVFVAAITVATFVLVLLFYLRCVKFLKFYMGFSAFIVLGNLGGEILVLLIDRFRFPIDSITFLILLFNFSVVGVFAVFMSKFSILITQGYLVWIGVLVAYFFTLLPEWTTWVLLVALALYDIAAVLLPVGPLRLLVEMAISRDEDIPALVYEARPVIRNDSRSVQRRVWREQRSSQNNANRNEVRVVESAEVEEEHVGSSERAEISVPLIDRRPEQAENSETFLEGIGLGSSGAIKLGLGDFIFYSVLVGRAAMYDLMTVYACYLAIIAGLGITLMLLSVYQKALPALPVSIMLGVVFYFLARLLLEVFVVQCSSNLVMF
notes: Arabidopsis thaliana presenilin 2 (AtPS2, At2g29900); cDNA made from leaf RNA; FLIM-FRET donor; also called presenilin 2; AtAtPS2–GFP; source: A. thaliana leaf mesophyll protoplasts, transiently transfected (pSITE vector), in living cells; not shown: eGFP, C-terminal, kept
As to B4, the “FRET efficiency, E_(FRET)” value with AtAPH-1–RFP turned out to be 20%; with AtPEN-2–RFP, 32%.
